Results taken from paper doi:10.1101/2022.08.24.505078, “Cyclic AMP competitively inhibits periplasmic phosphatases to coordinate nutritional growth with competence development of Haemophilus influenzae” (bioRxiv, 2022).

Biological target: the molecule itself
Experiment: SEC; purified protein on a Superdex 200 Increase 10/300 GL column; size read against standard proteins

| Protein | stoichiometry N |
| --- | --- |
| tag-less AphAEc (AphA of E. coli after removal of the N-terminal His6-SUMO tag by Ulp1) (enzyme, AphA, non-specific periplasmic acid phosphatase of E. coli; protein of around 25 kDa after cleavage; The linker between SUMO and AphA was removed by mutagenesis; also called cleaved tag-less AphAEc; source: E. coli, purified as His6-SUMO-AphAEc, tag cleaved off with His6-Ulp1, size exclusion chromatography; not shown: His6-SUMO, N-terminal, cleaved) SPSPLNPGTNVARLAEQAPIHWVSVAQIENSLAGRPPMAVGFDIDDTVLFSSPGFWRGKKTFSPESEDYLKNPVFWEKMNNGWDEFSIPKEVARQLIDMHVRRGDAIFFVTGRSPTKTETVSKTLADNFHIPATNMNPVIFAGDKPGQNTKSQWLQDKNIRIFYGDSDNDITAARDVGARGIRILRASNSTYKPLPQAGAFGEEVIVNSEY | 4 |
| AphAEc-His6 (periplasmic acid phosphatase AphA of E. coli, signal peptide removed, C-terminal six-histidine tag) (enzyme, UniProt P0AE22 26-237, looked up, AphA, non-specific periplasmic acid phosphatase of E. coli, with the N-terminal signal peptide removed; also called AphA-His6; Ct His6 tagged AphAEc; source: E. coli, purified (Ni-NTA, size exclusion chromatography on Superdex 200 Increase); not shown: His6, C-terminal, kept) SSPSPLNPGTNVARLAEQAPIHWVSVAQIENSLAGRPPMAVGFDIDDTVLFSSPGFWRGKKTFSPESEDYLKNPVFWEKMNNGWDEFSIPKEVARQLIDMHVRRGDAIFFVTGRSPTKTETVSKTLADNFHIPATNMNPVIFAGDKPGQNTKSQWLQDKNIRIFYGDSDNDITAARDVGARGIRILRASNSTYKPLPQAGAFGEEVIVNSEY | 2 |
| His6-AphAEc (periplasmic acid phosphatase AphA of E. coli, signal peptide removed, N-terminal six-histidine tag) (enzyme, UniProt P0AE22 26-237, looked up, AphA, non-specific periplasmic acid phosphatase of E. coli, with the N-terminal signal peptide removed; also called Nt His6 tagged AphAEc; source: E. coli, purified (Ni-NTA, size exclusion chromatography on Superdex 200 Increase); not shown: His6, N-terminal, kept) SSPSPLNPGTNVARLAEQAPIHWVSVAQIENSLAGRPPMAVGFDIDDTVLFSSPGFWRGKKTFSPESEDYLKNPVFWEKMNNGWDEFSIPKEVARQLIDMHVRRGDAIFFVTGRSPTKTETVSKTLADNFHIPATNMNPVIFAGDKPGQNTKSQWLQDKNIRIFYGDSDNDITAARDVGARGIRILRASNSTYKPLPQAGAFGEEVIVNSEY | 4 |
